Source: the DeepSol protein solubility set

Assay: soluble on expression in E. coli; label from the status in PepcDB or PDB records

Sequence: MAILYSKMKRSVTIKLQPSKEQEKILFELADVGAKVWNRVNYLRRQEFFEGKLVDFNRTEKIVYEEFKQETGSATVQQIARKNAEAWRSFFTNCPSGSSQNHQTTLEHHHHHH
- soluble on expression in E. coli: not soluble

Sequence: MKLKTNIRHLHGIIRVPGDKSISHRSIIFGSLAEGETKVYDILRGEDVLSTMQVFRDLGVEIEDKDGVITVQGVGMAGLKAPQNALNMGNSGTSIRLISGVLAGADFEVEMFGDDSLSKRPMDRVTLPLKKMGVSISGQTERDLPPLRLKGTKNLRPIHYELPIASAQVKSALMFAALQAKGESVIIEKEYTRNHTEDMLQQFGGHLSVDGKKITVQGPQKLTGQKVVVPGDISSAAFWLVAGLIAPNSRLVLQNVGINETRTGIIDVIRAMGGKLEITEIDPVAKSATLIVESSDLKGTEICGALIPRLIDELPIIALLATQAQGVTVIKDAEELKVKETDRIQVVADALNSMGADITPTADGMIIKGKSALHGARVNTFGDHRIGMMTAIAALLVADGEVELDRAEAINTSYPSFFDDLESLIHG
- soluble on expression in E. coli: soluble

Sequence: MYTAIPQSGSPFPGSVQDPGLHVWRVEKLKPVPVAQENQGVFFSGDSYLVLHNGPEEVSHLHLWIGQQSSRDEQGACAVLAVQLDDYLGGRPVQHREVQGNESDLFMSYFPRGLKYQEGGVESGFKHVVPNEVVVQRLYQVKGAKNIRATERALNWDSFNTGDCFILDLGQNIFAWCGGKSNILERNKARDLALAIRDSERQGKAQVEIVTDGEEPAEMIQVLGPKPALKEGNPEEDLTADKANAQAAALYKVSDATGQMNLTKVADSSPFALELLISDDCFVLDNGLCGKIYIWKGRKANEKERQAALQVAEGFISRMQYAPNTQVEILPQGRESPIFKQFFKDWK
- soluble on expression in E. coli: soluble

Sequence: EISGFGQCLVWVQCSFPNCGKWRRLCGNIDPSVLPDNWSCDQNTDVQYNRCDIPEETWTGLE
- soluble on expression in E. coli: soluble

Sequence: MKNDRTLQAIGRQLKAMGCERFDIGVRDATTGQMMNREWSAAEVLQNTPWLKRMNAQGNDVYIRPAEQERHGLVLVDDLSEFDLDDMKAEGREPALVVETSPKNYQAWVKVADAAGGELRGQIARTLASEYDADPASADSRHYGRLAGFTNRKDKHTTRAGYQPWVLLRESKGKTATAGPALVQQAGQQIEQAQRQQEKARRLASLELPERQLSRHRRTALDEYRSEMAGLVKRFGDDLSKCDFIAAQKLASRGRSAEEIGKAMAEASPALAERKPGHEADYIERTVSKVMGLPSVQLARAELARAPAPRQRGMDRGGPDFSM
- soluble on expression in E. coli: soluble

Sequence: MSRGSGILPDESMFAEFKRQCLSTENWVNKYDKNDMEVWVEQAPLSASINNKGNYSKVHKIRCQINIKDVSAATMYDVLHDGQYRKTWDPTMLESFDIARLAHNADVGYYSWICPKPLKNRDVVTLRSWQASENEYVIINFSVKHPKYPPRKDLVRAVSLMTGYLIKPTGPQSCIFTYLSQADPKGSLPKWVVNKASQVLAPKVLRSAHKAGQNYPAWKAANSPDHKPWLYPIQSELAMMDPAELSIQRGDSLENVDESSTRDAQENEDSS
- soluble on expression in E. coli: not soluble

Sequence: MISKHSSRLPIWVLSPREEQQARKNLKTETYKKCANFVQAMADCAKANGMKVFPTCDKQRDEMKSCLLFYQTDEKYLDGERDKIVLEKINKLEKLCQKQSSTK
- soluble on expression in E. coli: not soluble

Sequence: SSSGLNSEKVAALIQKLNSDPQFVLAQNVGTTHDLLDICLKRATVQRAQHVFQHAVPQEGKPITNQKSSGRCWIFSCLNVMRLPFMKKLNIEEFEFSQSYLFFWDKVERCYFFLSAFVDTAQRKEPEDGRLVQFLLMNPANDGGQWDMLVNIVEKYGVIPKKCFPESYTTEATRRMNDILNHKMREFCIRLRNLVHSGATKGEISATQDVMMEEIFRVVCICLGNPPETFTWEYRDKDKNYQKIGPITPLEFYREHVKPLFNMEDKICLVNDPRPQHKHNKLYTVEYLSNMVGGRKTLYNNQPIDFLKKMVAASIKDGEAVWFGCDVGKHFNSKLGLSDMNLYDHELVFGVSLKNMNKAERLTFGESLMTHAMTFTAVSEKDDQDGAFTKWRVENSWGEDHGHKGYLCMTDEWFSEYVYEVVVDRKHVPEEVLAVLEQEPIILPAWDPMGALA
- soluble on expression in E. coli: soluble
